Experimental data taken from paper PMC13495755 (Journal of the American Chemical Society, 2026).
The star is where a group is joined. 5FAM = O=C1OC2(c3ccc(O)cc3Oc3cc(O)ccc32)c2ccc(C(=O)*)cc21; Ahx = NCCCCCC(=O)O

T1: BCL-xL (1-26 + 81-198)
T1 construct: BCL-xL, first stretch of the loop-deleted construct; BCL-xL, second stretch; Loop between the two stretches deleted; no linker; source: E. coli BL21 DE3, purified (His-trap, SUMO tag removed with His-Ulp1, reverse His-trap, Superdex 75); not shown: His6, N-terminal, cleaved; SUMO, N-terminal, cleaved
T1 chain: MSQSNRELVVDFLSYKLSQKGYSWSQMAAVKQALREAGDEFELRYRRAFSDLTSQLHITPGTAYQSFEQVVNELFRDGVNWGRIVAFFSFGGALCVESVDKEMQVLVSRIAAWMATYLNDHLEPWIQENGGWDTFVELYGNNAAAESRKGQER

T2: MCL-1 (172-327)
T2 construct: MCL-1 residues 172-327 as labelled; source: E. coli BL21 DE3, purified (His-trap, SUMO tag removed with His-Ulp1, reverse His-trap, Superdex 75); not shown: His6, N-terminal, cleaved; SUMO, N-terminal, cleaved
T2 chain: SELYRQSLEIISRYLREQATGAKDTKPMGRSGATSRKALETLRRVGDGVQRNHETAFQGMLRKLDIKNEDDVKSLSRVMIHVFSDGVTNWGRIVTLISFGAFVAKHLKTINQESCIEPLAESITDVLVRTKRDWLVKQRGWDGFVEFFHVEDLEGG

T3: Kelch-like protein 20 (KLHL20) (UniProt Q9Y2M5 1-609)
T3 construct: Kelch-like protein 20 (KLHL20), E3 ubiquitin ligase adapter; The functional rows use this molecule for KLHL20 of HEK293 cells; also called E3 ligase adapter
T3 sequence (looked up): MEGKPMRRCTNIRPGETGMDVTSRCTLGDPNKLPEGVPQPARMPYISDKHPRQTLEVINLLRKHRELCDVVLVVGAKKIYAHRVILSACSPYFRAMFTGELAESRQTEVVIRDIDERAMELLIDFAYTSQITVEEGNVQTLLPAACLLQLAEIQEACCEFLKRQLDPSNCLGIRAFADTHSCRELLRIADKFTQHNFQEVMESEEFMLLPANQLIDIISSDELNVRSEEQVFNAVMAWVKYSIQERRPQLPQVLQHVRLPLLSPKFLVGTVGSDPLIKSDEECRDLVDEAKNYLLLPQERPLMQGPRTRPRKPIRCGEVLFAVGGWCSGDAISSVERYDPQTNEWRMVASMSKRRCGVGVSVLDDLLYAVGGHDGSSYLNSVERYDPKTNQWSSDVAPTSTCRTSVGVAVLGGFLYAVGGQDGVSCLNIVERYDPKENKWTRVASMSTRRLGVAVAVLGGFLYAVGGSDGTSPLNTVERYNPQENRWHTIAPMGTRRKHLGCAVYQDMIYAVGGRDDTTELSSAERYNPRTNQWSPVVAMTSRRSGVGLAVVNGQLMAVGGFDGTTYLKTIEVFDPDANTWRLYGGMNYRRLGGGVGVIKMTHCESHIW

T4: KLHL20 (303-605)
T4 sequence (Q9Y2M5 303-605, species assumed, looked up): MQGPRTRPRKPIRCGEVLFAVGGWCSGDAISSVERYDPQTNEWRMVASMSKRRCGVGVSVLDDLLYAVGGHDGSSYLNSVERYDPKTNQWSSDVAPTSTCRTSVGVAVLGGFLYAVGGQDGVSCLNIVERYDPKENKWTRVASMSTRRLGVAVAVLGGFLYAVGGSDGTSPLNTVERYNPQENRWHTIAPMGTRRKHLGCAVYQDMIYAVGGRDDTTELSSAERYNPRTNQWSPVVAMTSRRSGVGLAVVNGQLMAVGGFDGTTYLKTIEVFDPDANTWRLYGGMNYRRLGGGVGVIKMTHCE


Columns and labels:
MCL-1 = MCL-1 (UniProt Q07820); test: fluorescence polarisation; direct FA titration of the labeled BID peptide with BCL-xL or MCL-1
Chain of MCL-1 (Q07820 whole entry): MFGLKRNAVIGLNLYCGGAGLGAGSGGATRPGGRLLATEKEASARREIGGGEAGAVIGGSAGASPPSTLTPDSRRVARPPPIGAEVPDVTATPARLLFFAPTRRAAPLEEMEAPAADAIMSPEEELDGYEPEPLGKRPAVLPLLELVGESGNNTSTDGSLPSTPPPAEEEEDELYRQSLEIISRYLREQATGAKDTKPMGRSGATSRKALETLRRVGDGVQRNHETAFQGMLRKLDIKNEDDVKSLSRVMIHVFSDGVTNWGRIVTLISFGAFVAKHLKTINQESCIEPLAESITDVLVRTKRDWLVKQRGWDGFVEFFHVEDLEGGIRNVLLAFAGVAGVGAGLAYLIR

BCL-xL = BCL-xL (UniProt Q07817); test: as above
BCL-xL (1-26 + 81-198) = biological target: T1, BCL-xL (1-26 + 81-198); test: fluorescence polarisation; competitive fluorescence anisotropy; target protein (BCL-xL or MCL-1) fixed at 150 nM, FAM-BID tracer fixed at 25 nM, competitor protein titrated in; FA buffer 20 mM Tris, 150 mM NaCl pH 7.4, 1 mM DTT, 0.01% triton x100 (legends: 20 mM Tris-HCl, 150 mM NaCl, pH 7.5); triplicate; logistic fit; settings: both partners purified
MCL-1 (172-327) = biological target: T2, MCL-1 (172-327); test: as above; settings: both partners purified
[1] = biological target: T3, Kelch-like protein 20 (KLHL20); test: fluorescence polarisation; direct FA titration of the tracer with KLHL20; settings: both partners purified
KLHL20 (303-605) = biological target: T4, KLHL20 (303-605); test: fluorescence polarisation; direct titration of the FAM-labelled tracer peptide with the target protein; FA buffer 20 mM Tris, 150 mM NaCl pH 7.4, 1 mM DTT, 0.01% triton x100

Row | Molecule | IC50 (BCL-xL (1-26 + 81-198)) | IC50 (MCL-1 (172-327)) | also measured
1 | BID, natural effector peptide, labeled competitor peptide | – | – | Kd (MCL-1): 21.5 nM; Kd (BCL-xL): 71 nM
2 | {FAM-Ahx}-LGLPDLVAK-NH2 [tracer of the competitive FA-binding assay for KLHL20] | – | – | Kd [1]: 12000 nM
3 | {5FAM-Ahx}-LGLPDLVAK-NH2 (SMILES CC(C)C[C@H](NC(=O)CCCCCNC(=O)c1ccc2c(c1)C(=O)OC21c2ccc(O)cc2Oc2cc(O)ccc21)C(=O)NCC(=O)N[C@@H](CC(C)C)C(=O)N1CCC[C@H]1C(=O)N[C@@H](CC(=O)O)C(=O)N[C@@H](CC(C)C)C(=O)N[C@H](C(=O)N[C@@H](C)C(=O)N[C@@H](CCCCN)C(N)=O)C(C)C) [FAM-DAPK1] | – | – | Kd (KLHL20 (303-605)): 12200 nM

Continued, in another order:

Row | IC50 (BCL-xL (1-26 + 81-198)) | IC50 (MCL-1 (172-327)) | Molecule | also measured
4 | 212 ± 18 nM | 270 ± 20 nM | Sc-apCC-2-BCL-xL-12 (designed binder) SHMGPELERLEERRRELERELEELDREIAELEWTIKSDPRKKELIVKLRQLFGRRLRLMGDIFDLDVQIRRLREG | –
5 | 197 ± 10 nM | 500 ± 150 nM | Sc-apCC-2-BCL-xL-11 (designed binder, de novo helix-loop-helix design against BCL-xL (Strategy 3, pAE); source: E. coli BL21 DE3, purified (His-trap, TEV cleavage, reverse His-trap, Superdex 75); not shown: His6, N-terminal, cleaved) SHMGPELAALQAERDALEARLAELDREIAALEWRIPSDPRKKQLIGELLRLFGDRFDLERRIAELDAKIEALKNG | –
